Results from article PMC11182015, “Cytosolic RNA binding of the mitochondrial TCA cycle enzyme malate dehydrogenase”.

Molecular target: T1, MDH2 preprotein (malate dehydrogenase 2, mitochondrial), with N-terminal MTS (Homo sapiens, UniProt P40926 1-338)
T1 sequence: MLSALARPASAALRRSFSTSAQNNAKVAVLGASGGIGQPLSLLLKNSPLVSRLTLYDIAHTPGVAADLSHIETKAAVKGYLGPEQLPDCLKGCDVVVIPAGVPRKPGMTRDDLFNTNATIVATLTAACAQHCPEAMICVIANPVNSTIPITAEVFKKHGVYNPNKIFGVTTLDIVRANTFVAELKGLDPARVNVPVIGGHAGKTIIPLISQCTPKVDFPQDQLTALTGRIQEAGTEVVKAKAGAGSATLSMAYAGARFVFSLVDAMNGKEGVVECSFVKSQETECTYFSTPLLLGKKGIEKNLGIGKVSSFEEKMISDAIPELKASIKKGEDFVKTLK
Test: EMSA; RNA 10 nM; EMSA: 10 mM Tris-HCl pH 7.5, 150 mM NaCl, 20% glycerol, 0.5 mM DTT, 5 mM MgCl2, 0.01 ug/uL BSA, 25 C 20 min; 10 nM Cy5-RNA; native 4-15% Tris-glycine gel
Conditions: protein: recombinant; tags: C-terminal Strep-II; label: Cy5

With AUAUUUAGCUCAGGCCCGUGGCGCC (ssRNA) [RPS23 5'-UTR control probe] as the binder, how does the Kd read?
The Kd was 1500 nM.
